Test results taken from PMC11109483.

Target: biotinylated HIP1 (22-309) (UniProt O00291)
Test: SPR; Biacore T200, 25°C; biotinylated HIP1(22-309) immobilised on Sensor Chip NA (900 RU); Ub chains as analytes 60 nM to 250 uM, multicycle; 50 mM Hepes pH 7.5, 300 mM NaCl, 0.5 mM TCEP, 0.05% Tween-20, 1% BSA; steady-state affinity model

Chain of UniProt O00291 (O00291 22-309): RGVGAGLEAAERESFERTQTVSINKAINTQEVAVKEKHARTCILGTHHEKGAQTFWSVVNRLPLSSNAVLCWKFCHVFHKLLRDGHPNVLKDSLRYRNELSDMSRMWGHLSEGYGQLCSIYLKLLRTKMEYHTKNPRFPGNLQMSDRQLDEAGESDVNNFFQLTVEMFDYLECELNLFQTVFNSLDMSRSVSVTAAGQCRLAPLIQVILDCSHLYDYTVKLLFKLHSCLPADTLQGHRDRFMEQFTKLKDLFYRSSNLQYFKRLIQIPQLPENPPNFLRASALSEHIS

Kd [µM]	Substance
1.55	K63-linked Ub3 (from UniProt P0CG48 1-76; P0CG48 1-76)
137	K48-linked Ub2 (from UniProt P0CG48 1-76; P0CG48 1-76)
1.89	K63-linked Ub2 (from UniProt P0CG48 1-76; P0CG48 1-76)
66.2	K48-linked Ub3 (from UniProt P0CG48 1-76; P0CG48 1-76)
